{"source": "patent US20070037211A1", "about": "(COUNCIL OF SCIENTIFIC AND INDUSTRIAL RESEARCH CSIR, published 2007)", "target": "T1, Hsp16.3, 16 kDa alpha-crystallin like heat shock protein of Mycobacterium tuberculosis, recombinant … (Mycobacterium tuberculosis, UniProt P9WMK1 1-144)", "T1 construct": "also called M. tuberculosis Acr; not shown: pQE-8 vector-derived residues flanking the 6xHis tag", "T1 sequence": "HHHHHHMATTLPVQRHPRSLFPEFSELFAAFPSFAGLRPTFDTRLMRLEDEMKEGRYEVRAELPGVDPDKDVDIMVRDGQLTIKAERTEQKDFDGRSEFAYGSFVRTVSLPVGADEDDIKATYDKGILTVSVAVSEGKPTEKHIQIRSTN", "experiment": "reverse phage ELISA on coated Hsp16.3, anti-M13-HRP, A405", "note": "No end group written: not given here.", "data": [{"binder": "YPHHFKHRHIPI (also: displayed on M13 phage, fused to coat protein, Tested as whole phage particles in reverse phage ELISA; not shown: M13 coat protein to which the peptide is fused, and the spacer to it)", "values": [{"measurement": "fold binding over non-specific control BSA", "result": "~3", "unit": "fold"}]}]}
